In patent US20240122909A1, “TREATMENTS OF HEREDITARY ANGIOEDEMA” (KALVISTA PHARMACEUTICALS LIMITED, priority 2021, published 2024):

Tests used:
[1] = background, literature or label; cited from earlier work
[2] = phase 1 studies, repeat dosing; cited from earlier work
plasma kallikrein = plasma kallikrein (Homo sapiens, UniProt P03952); experiment: Inhibition of enzyme activity of pre-activated plasma (compound added after DXS); assay type: biochemical; conditions: added 3.5 minutes post DXS; compound 300, 1000, 3000 nM; C1-INH 3000 nM
Sequence of plasma kallikrein (P03952 391-638 limits assumed): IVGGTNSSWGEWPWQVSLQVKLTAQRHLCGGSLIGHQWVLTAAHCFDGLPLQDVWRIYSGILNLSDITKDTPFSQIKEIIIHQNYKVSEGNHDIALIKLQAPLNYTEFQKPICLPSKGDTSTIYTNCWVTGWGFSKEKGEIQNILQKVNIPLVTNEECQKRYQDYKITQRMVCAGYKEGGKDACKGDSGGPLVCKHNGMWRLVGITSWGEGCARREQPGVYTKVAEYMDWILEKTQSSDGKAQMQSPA
Sequence of plasma kallikrein (P03952 20-390 partner limits assumed): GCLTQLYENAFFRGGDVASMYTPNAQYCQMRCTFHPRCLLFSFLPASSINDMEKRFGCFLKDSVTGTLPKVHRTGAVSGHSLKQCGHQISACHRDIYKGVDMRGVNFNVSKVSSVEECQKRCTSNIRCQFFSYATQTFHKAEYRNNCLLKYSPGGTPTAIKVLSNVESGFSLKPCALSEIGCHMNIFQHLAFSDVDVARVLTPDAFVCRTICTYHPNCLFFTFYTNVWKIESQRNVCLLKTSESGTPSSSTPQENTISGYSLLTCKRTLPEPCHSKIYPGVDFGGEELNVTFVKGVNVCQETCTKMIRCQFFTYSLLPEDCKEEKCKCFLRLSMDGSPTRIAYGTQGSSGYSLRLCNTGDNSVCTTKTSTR
Description: The ability of the compound to inhibit the enzyme activity of pre-activated plasma was assessed by addition of the compound after DXS stimulation. Aliquots of plasma (20 μL) were mixed with a 2.5 μL solution containing […] fluorogenic substrate (H-DPro-Phe-Arg-AFC) and a 2.5 μL solution of dextran sulphate (DXS; 100 μg/mL) which acted as an activator of the plasma kallikrein-kinin pathway. Enzyme activity was immediately measured by monitoring the accumulation of fluorescence liberated from the substrate by substrate cleavage over 16 minutes. At 3.5 minutes post DXS addition 5 μl of inhibitors or water control are were added into each well. The compound was tested at concentrations of 300, 1000 and 3000 nM. C1-INH at a concentration of 3000 nM and vehicle controls were also included.

| Molecule | reported adverse reactions [1] | further results |
| --- | --- | --- |
| N#Cc1cccc([C@@H](NCC2CC2)c2ccc(F)c(NC(=O)c3cc(C(F)(F)F)nn3-c3cccc(CN)c3)c2)c1 [Berotralstat] | higher doses were associated with more gastrointestinal adverse effects | – |
| COCc1nn(Cc2ccc(Cn3cc(F)ccc3=O)cc2)cc1C(=O)NCc1nccc(OC)c1F [KVD824, 1-({4-[(5-fluoro-2-oxopyridin-1-yl)methyl]phenyl}methyl)-N-[(3-fluoro-4-methoxypyridin-2-yl)methyl]-3-(methoxymethyl)pyrazole-4-carboxamide] | – | pharmacokinetic profile [2]: consistent pharmacokinetic profile over repeat dosing |
| C1-INH: C1 inhibitor (C1-INH, Sigma Cat #E0518), therapeutic benchmark for HAE [Compound C1-INH] | – | inhibition of enzyme activity after activation of plasma (plasma kallikrein): slower action |
| Ecallantide | risk of anaphylactic reactions | – |
| lanadelumab: recombinant fully human IgG1 kappa light chain monoclonal antibody, active substance of Takhzyro® (antibody, chains of the INN, looked up, V domains shown) VH: EVQLLESGGGLVQPGGSLRLSCAASGFTFSHYIMMWVRQAPGKGLEWVSGIYSSGGITVYADSVKGRFTISRDNSKNTLYLQMNSLRAEDTAVYYCAYRRIGVPRRDEFDIWGQGTMVTVSS VL: DIQMTQSPSTLSASVGDRVTITCRASQSISSWLAWYQQKPGKAPKLLIYKASTLESGVPSRFSGSGSGTEFTLTISSLQPDDFATYYCQQYNTYWTFGQGTKVEIK | hypersensitivity, injection site pain, injection site erythema, and injection site bruising | – |
